Numbering of substitutions follows the chain as printed. “And” between values parts separate entries of the source, which are not always exact repeats. Equal values may be shown once.
Experiments:
[1] = biological target: T1, SARS-CoV-2 Spike (S) protein, wild type, full length (SARS-CoV-2), P0DTC2; conditions: remark: other sources report otherwise
[2] = biological target: SARS-CoV-2 full length Spike protein, wild type (SARS-CoV-2), P0DTC2; conditions: remark: other sources report otherwise
[3] = biological target: full length Spike of WIV1 (WIV1)
[4] = biological target: T1, SARS-CoV-2 Spike (S) protein, wild …; conditions: remark: other sources report otherwise; remark: listed apart in the source

B1: antibody 259 (antibody, V domains shown)
VH: EVQLVQSGAEVKKPGATVKISCKVSGYTFTDYYMHWVQQAPGKGLEWMGLVDPEDGETIYAEKFQGRVTITADTSTDTAYMELSSLRSEDTAVYYCATDLLSWKLYCSGGSCPQMDVWGQGTTVTVSS
VL: DIQMTQSPSSLSASVGDRVTITCRASQGIRNDLGWYQQKPGKAPKRLIYAASSLQSGVPSRFSGSGSGTEFTLTISSLQPEDFATYYCLQHNSYPQTFGQGTKLEIK
bead binding signal (fold over isotype) (fold over isotype) [1]: 275

B2: antibody 396 (antibody, V domains shown)
VH: QVQLQQWGAGLLKPSETLSLTCAVYGGSFSGYYWSWIRQPPGKGLEWIGEIIHSGSTNYNPSLKSRVTISVDTSKNQFSLKLSSVTAADTAVYYSARRTGLLWFREGSYYFDYWGQGTLVTVSS
VL: B1 VL with Q96L, Q100G, L104V
fold over isotype control (median fluorescence) (fold over isotype) [2]: 553

B3: anti-SARS-CoV-2 antibody 304 (antibody, V domains shown)
VH: EVQLLESGGGLVQPGGSLRLSCAASGFTFSTYAMSWVRQAPGKGLEWVSAISGSGGSTYYADSVKGRFTISRDNSKNTLYLQMNSLRAEDTAVYYCASGYSPDYWGQGTLVTVSS
VL: B1 VL with D1A, R46L, E70D, H91D, N92Y, S93N, Q96R, L104V
fold over isotype control (median fluorescence) (fold over isotype) [3]: 1.01 and 1.04

B4: antibody 521 (antibody, V domains shown)
VH: QVQLVESGGGVVQPGRSLRLSCAASGFTFSSYGMHWVRQAPGKGLEWVAVIWYDGSNKYYADSVKGRFTISRDNSKNTLYLQMNSLRAEDTAVYYCAREGNDYGDYGEWELLGYFDYWGQGTLVTVSS
VL: SYELTQPPSVSVSPGQTARITCSGDALPKKYAYWYQQKSGQAPVLVIYEDSKRPSGIPERFSGSSSGTMATLTISGAQVEDEADYYCYSTDSSGNHRRVFGGGTKLTVL
median fluorescence, fold over isotype control (fold over isotype) [4]: 0.86

B5: antibody 337 (antibody, V domains shown)
VH: QVQLVESGGGVVQPGRSLRLSCAASGFTFSSYGMHWVRQAPGKGLEWVAIIWYDGSNKYYADSVKGRFTISRDNSKNTLYLQMNSLRAEDTAVYYCAKDTGGYCSGGSCYPESYFDYWGQGTLVTVSS
VL: SYVLTQPPSVSVAPGKTARITCGGNNIGSKSVHWYQQKPGQAPVLVIYYDSDRPSGIPERFSGSNSGNTATLTINRVEAGDEADYYCQVWDGSSDHLYVFGTGTKVTVL
bead binding signal (fold over isotype) (fold over isotype) [2]: 756

B6: anti-SARS-CoV-2 antibody 311 (antibody, V domains shown)
VH: QVQLQESGPGLVKPSETLSLTCTVSGYSISSGYYWGWIRQPPGKGLEWIGSIYHSGSTYYNPSLKSRVTISVDTSKNQFSLKLSSVTAADTAVYYCAREETLGSSWYESYIDYWGQGTLVTVSS
VL: B5 VL with N75S, G92S, L97P, Y98R, T102G, V106L
fold over isotype control (median fluorescence) (fold over isotype) [3]: 1.11 and 1.14

B7: antibody 315 (antibody, V domains shown)
VH: QVQLVQSGSELKKPGASVKLSCQASGYSFTNHAMNWVRQAPGQGLEWMGWINTNTGNPTYAQGFTGRFVFSLDTSVSTTYLHISSLKAEDTAVYYCARASARPGVATNLDFWGQGTLVVVSS
VL: DIQMTQSPSSLSASVGDRVTITCRASQNIDNYLNWYQQKPGKAPKLLIYAASRLHSGVPSRFSGSGSGTDFTLIISSLQPEDLATYYCQQSYSNPLTFGPGTKVDIR
bead binding signal (fold over isotype) (fold over isotype) [2]: 592

B8: anti-SARS-CoV-2 antibody 315 (antibody, V domains shown)
VH: B7 VH
VL: B7 VL
fold over isotype control (median fluorescence) (fold over isotype) [3]: 1.09

B9: anti-SARS-CoV-2 antibody 318 (antibody, V domains shown)
VH: QVQLVESGGGVVPPGRSLSLPCAASGFSFSAYAMHWLRQAPGKGLEWVAVISYDGTVKYVADSVRGRFTISRDNSNNTLYLQMTSLRSDDTAVYYCARDLGALAAAPTVYFVHWGQGTLVTVSS
VL: SYVLTQPPSVSVAPGKTATITCAGEDIGRKSVHWYQQKPGQAPVLVIFYYSDRPSGIPDRFSGSVSGNTATLTIGRVEAGDEADYFCQVWDRTTNHVIFGGGTKVTVL
fold over isotype control (median fluorescence) (fold over isotype) [3]: 291 and 166

B10: antibody 362 (antibody, V domains shown)
VH: QVQLVESGGGVVQPGRSLRLSCAASGFNLSNYAMHWVRQASGKGLEWVSLISYDGSVKYYTDSVKGRFTVSGDNSKNTLFLQMNSLRPDDSALYYCVRGGVSGPNSFDMWGQGTTVTVSS
VL: DVVMTQSPLSLPVTLGQPATISCRSSQSLVYSDGNTYVNWFQQRPGQSPRRLIYQVSIRASGVPDRFSGSGSGTDFALKISRVEAEDVGVYYCMQGTHWPVTFGQGTKVEIK
fold over isotype (median fluorescence intensity) (fold over isotype) [4]: 9.45 | bead binding signal (fold over isotype) (fold over isotype) [2]: 503

B11: anti-SARS-CoV-2 antibody 316 (antibody, V domains shown)
VH: QVHLVESGGGVVQPGRSLRLSCAASGFTLTAYAMHWVRQAPGKRLEWVALISYDGSVKKYADSVKGRITVSGDTSTNTLHLQMNSLRADDTAVYYCVRGGVSGPNSFDLWGQGTMVTVSS
VL: B10 VL with T20S, I21M, V30E, Q42H, Q55K, I58Y, A60D, A77T, K79Q, V90I
fold over isotype control (median fluorescence) (fold over isotype) [3]: 93.8

B12: anti-SARS-CoV-2 antibody 319 (antibody, V domains shown)
VH: B10 VH with V57I
VL: B10 VL with T20S
fold over isotype control (median fluorescence) (fold over isotype) [3]: 96.2

B13: antibody 267 (antibody, V domains shown)
VH: EVHLVQSGAEMKKPGATVKISCKVSGNTFIDHYIQWVQQAPGKGFEWMGLVDPEDGETIYAEKFQGRVTITADTSRDTAYMELSSLKSEDTAVYYCGTHGDYLDYWGQGTLVTVSS
VL: FYELTQPSSVSVSPGQTALITCSGDVVAKKYARWFQQKAGQAPVLVIYKDTERPSGIPERISGSSSGTTVTLTISGAQVEDEADYYCYSATDNNLVFGGGTKVTVL
bead binding signal (fold over isotype) (fold over isotype) [1]: 312

B14: antibody 493 (antibody, V domains shown)
VH: EVQLVESGGGLIQPGRSLRLSCAASGFTVSITYMSWVRQAPGKGLEWVSLIYSGGSSYYADSVKGRFTISRDNSKNTLYLQMNSLRAEDTAVYYCATTMVRGVIISYYYGMDVWGQGTTVTVSS
VL: QSALTQPASVSGSPGQSITISCTGTSSDVGGYNYVSWYQQHPGKAPKLMIYEVSNRPSGVSNRFSGSKSGNTASLTISGLQAEDEADYYCSSYTSSSTLVFGGGTKLTVL
median fluorescence, fold over isotype control (fold over isotype) [4]: 1.1

B15: antibody 390 (antibody, V domains shown)
VH: B14 VH with R16G, I31S, T32N, L50I, S57T, T90S, Y94S, V103L
VL: B14 VL
fold over isotype control (median fluorescence) (fold over isotype) [2]: 637 and 341 and 318

B16: antibody 413 (antibody, V domains shown)
VH: EVQLVESGGGLIQPGGSLRLSCAASGFTVSGNYMNWVRQAPGKGLEWVSVIYSGGSTYYADSVKGRFTISRANSKNTLYLQMNSLRAEDTAVYYCASTSLVRGLIILYYYGMDVWGQGTTVTVSS
VL: B14 VL
median fluorescence fold over isotype (fold over isotype control) [2]: 969 and 367 and 416

B17: antibody 392 (antibody, V domains shown)
VH: QVQLQESGPGLVKPSGTLSLTCAVSGGSISSSNWWSWVRQPPGKGLEWIGEIYHSGSTNYNPSLKSRVTISVDKSKNQFSLKLSSVTAADTAVYYCARGWRATLYGMDVWGQGTTVTVSS
VL: B14 VL with G31S, Y34L, N55K, S91C, T94A, S95G, L99W
fold over isotype control (median fluorescence) (fold over isotype) [2]: 509

B18: antibody 322 (antibody, V domains shown)
VH: EVQLVESGGGLVQPGGSLRLSCAASGFTFSSYWMSWVRQAPGKGLEWVANIKQDGSEKYYVDSVKGRFTISRDNAKNSLYLQMNSLRAEDTAVYYCARDEDVAAALDYWGQGTLVTVSS
VL: SYVLTQPPSVSVAPGKTARITCGGNNIGSKSVHWYQQKPGQAPVLVIYYDSDRPSGIPERFSGSNSGNTATLTISRVEAGDEADYYCQVWDSSSDHPERVFGGGTKLTVL
fold over isotype (median fluorescence intensity) (fold over isotype) [4]: 1.65

B19: antibody 452 (antibody, V domains shown)
VH: QVQLVESGGGLVKPGGSLRLSCAASGFTFSDYYLSWIRQAPGKGLEWVSYISSSGSNIYYADSVKGRFTISRDNAKNSLYLQMNSLRADDTAVFYCARAGRYCSGGSCRVEYFQHWGQGTLVTVSS
VL: SYELTQPPSVSVSPGQTARITCSGDALPKQYAYWYQQKPGQAPVLVIYKDNERPSGIPERFSGSSSGTTATLTISGVQAEDEADYYCQSADSSGTVVFGGGTKLTVL
median fluorescence fold over isotype (fold over isotype control) [2]: 854

B20: antibody 325 (antibody, V domains shown)
VH: QVQLQESGPGLVKPSQTLSLTCTVSGGSISGGGYYWSWIRQHPGKGLEWIGYIYYSGSTYYNPSLQSRVTISVDTSKNQFSLKLSSVTAADTAVYYCARVGTSSVWYFDYWGQGTLVTVSS
VL: QSALTQPRSVSGSPGQSVTISCTGTSSDVGGYNYVSWYQQHPGKAPKLMIYDVTKRPSGVPDRFSGSKSGNTASLTISGLQAEDEADYYCSSYAGSWVFGGGTKLTVL
fold over isotype (median fluorescence intensity) (fold over isotype) [4]: 1.08

B21: antibody 416 (antibody, V domains shown)
VH: EVQLVESGGGLVQPGRSLRLSCAASGFTFDDYAMHWVRQAPGKGLEWVSGISWNSGSIGYADSVKGRFTISRDNAKNSLYLQMNSLRAEDTALYYCAKDLAWLSGGMDVWGQGTTVTVSS
VL: not shown
median fluorescence fold over isotype (fold over isotype control) [2]: 110
